1 molecule from paper PMC10810221, “DELTEX E3 ligases ubiquitylate ADP-ribosyl modification on nucleic acids” can be followed below.

The target in the data set is DTX3L RD (RING-DTC) (Homo sapiens, UniProt Q8TDB6 544-740). The data set can be described thus: EMSA; 5 mM Mg2+; protein 0.5, 1, 2 uM; RNA 0.5 uM; EMSA: 20 mM HEPES pH 7.5, 50 mM KCl, 5 mM MgCl2, 1 mM DTT, on ice 0.5 h, 6% native PAGE. The conditions noted are these: protein: recombinant; label: 3' Cy3; single strand. (In general: A gel shift assay detects complexes by their altered migration in electrophoresis.)
DTX3L RD (RING-DTC), sequence (Q8TDB6 544-740): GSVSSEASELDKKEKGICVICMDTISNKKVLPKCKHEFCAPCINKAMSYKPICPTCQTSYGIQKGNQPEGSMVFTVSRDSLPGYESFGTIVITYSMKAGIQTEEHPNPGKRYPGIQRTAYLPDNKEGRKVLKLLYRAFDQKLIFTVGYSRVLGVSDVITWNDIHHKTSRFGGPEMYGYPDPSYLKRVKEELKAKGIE

B1: E35_5'P_RNA_3Cy3 (ssRNA)
RNA: GUGGCGCGGAGACUUAGAGAAAUUGUGAUCAGGAA
modifications: 5' phosphate
For the molecule B1, the binding result is reported as “no binding”.
